Test results published in patent US20230049732A1 (UNIVERSITY OF LOUISVILLE RESEARCH FOUNDATION, published 2023).

Tests used:
[1] = target: T1, HPV16 VLPs (human papillomavirus type 16, UniProt P03101 1-505); assay: ELISA, intact VLPs coated, hybridoma supernatant
T1 construct: Specificity control; also called human papillomavirus VLPs
T1 sequence: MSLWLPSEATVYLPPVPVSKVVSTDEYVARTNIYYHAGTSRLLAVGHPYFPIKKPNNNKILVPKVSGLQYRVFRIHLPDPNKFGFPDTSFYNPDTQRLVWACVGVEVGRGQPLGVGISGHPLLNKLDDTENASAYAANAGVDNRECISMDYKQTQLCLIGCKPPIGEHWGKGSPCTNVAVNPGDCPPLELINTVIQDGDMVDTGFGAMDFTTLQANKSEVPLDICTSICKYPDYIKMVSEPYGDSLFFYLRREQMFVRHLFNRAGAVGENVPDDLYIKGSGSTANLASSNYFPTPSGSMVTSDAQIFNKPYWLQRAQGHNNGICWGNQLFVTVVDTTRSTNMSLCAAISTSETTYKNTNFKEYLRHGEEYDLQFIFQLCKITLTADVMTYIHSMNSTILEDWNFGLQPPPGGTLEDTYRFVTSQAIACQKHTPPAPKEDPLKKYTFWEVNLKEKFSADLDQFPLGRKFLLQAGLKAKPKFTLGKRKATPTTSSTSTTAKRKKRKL

[2] = target: T1, HPV16 VLPs; assay: ELISA, VLPs coated

B1: MAb #19B (antibody, V domains shown)
VH: QVQLQQSGAELARPGASVKMSCKASGYTFTSYTMYWVKQRPGQGLEWIGYVNPSSGYTNYNQKFKDKATLTADKSSSTAYMQLSSLTSEDSAVYYCARHGNYRYDGYYGMDCWGQGTSVTVSS
VL: DIQMTQSSSSFSVSLGDRVTITCKASEDIYNRLAWYQQKPGNAPRLLISGATSLETGVPSRFSGSGSGKDYTLSITSLQTEDVATYYCQQYWSTPYTFGGGTKLEIK
notes: Murine hybridoma antibody, supernatant; also called antibody 19
[1]
  ELISA absorbance (405 nm): 0.015
[2]
  binding result: no binding

B2: MAb #61 (antibody, V domains shown)
VH: QVQLQQSGAELARPGASVKMSCKASGYTFTSYTMHWVKQRPGQGLEWIGYINPSSGYTNYNQKFKDKATLTADKSSSTAYMQLSSLTSEDSAVYYCARPDGYYAWFAYWGQGTLVTVSA
VL: DIQMTQSSSSFSVSLGDRVTITCKASEDIYNRLAWYQQKPGNAPRLLISGATSLETGVPSRFSGSGSGKDYTLSITSLQTEDVATYYCQQYWSTPTFGGGTKLEIK
notes: Murine hybridoma antibody, supernatant; also called antibody 61
[1]
  ELISA absorbance (405 nm): 0.061
[2]
  binding result: no binding
